Laboratory results from US20180172692.

Key:
[1] = target: T1, β9
T1 chain: GSMLFRVTINS

[2] = target: T2, β10*
T2 chain: VSGWRLFKKIS

B1: Δ11S (protein)
chain: MVFTLEDFVGDWEQTAAYNLDQVLEQGGVSSLLQNLAVSVTPIQRIVRSGENALKIDIHVIIPYEGLSADQMAQIEEVFKVVYPVDDHHFKVILPYGTLVIDGVTPNMLNYFGRPYEGIAVFDGKKITVTGTLWNGNKIIDERLITPD
**Q.** What does the source list for B1?
**A.** luminescence (furimazine substrate), fragments each at 1 µM [1]: the mixture of all three components is the only combination that produced significant luminescence; luminescence (furimazine substrate), fragments each at 1 µM [2]: the mixture of all three components is the only combination that produced significant luminescence
